Source: the nanobody polyreactivity screen of Harvey et al. (2022)

Assay: yeast display, Sf9 membrane polyspecificity reagent, FACS + sequencing; frameworks hold sequencing errors
Procedure, shortened: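 Synthetic nanobody libraries on Saccharomyces cerevisiae BJ5465 were galactose-induced for 36–48 hours, stained 1 hour at 4 °C with 10% biotinylated, detergent-solubilized Sf9 membrane reagent and enriched on streptavidin microbeads. FACS then separated cells into low and high (top ~1%) gates by anti-HA (expression) and streptavidin (reagent binding) fluorescence. Genes were colony-PCR amplified, MiSeq 2 × 250 sequenced and CDR-length filtered. A clone's polyreactivity label is that of its gate of origin.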

| Sequence | polyreactivity (PSR sort gate) |
| --- | --- |
| QVQLVESGGGLVQAGGSLRLSCAASGYTFDQYAMGWYRQAPGKERELVAGIDSAGSTYYADSVKGRFTISRDNAKITVYLQMNSLKPEDTAVYYCNADDLNTEVPYYYWGQGTQVTGSS | low polyreactivity |
| QVQLVESGGGLVQAGGSLRLSCAASGYTFDYYAMGWYRQAPGKERELVAAISGSGSRTYYADSVKGRFTISRDNAKNTVYFQMNSLKPEDTAVYYCAAEYYYSDAGNYWGQGTQVTVSS | high polyreactivity |
| QVQLVESGGGLVQAGGSLRLSCAASGYTFEAYAMGWYRQAPGKERELVAAINYSGGSTYADSVKGRFTISRDNAKNTVYLQMNSLKPEDTAVYYCAAYGTKRYPYDYWGQGTQVTVSS | low polyreactivity |
| QVQLVESGGGLVQAGGSLRLSCAASGYTFENYVKGWYSQAPGKERELVAAISSRGGSTYYADSVKGRFTISRDNAKNTVYLQMNSLKPEDTAVYYCAARARQTGPYRSRYNYWGQGTQVTVSS | high polyreactivity |
| QVQLVESGGGLVQAGGSLRLSCAASGYTFFFNVMGWYRQAPGKERELVAAISYSGGSTNYADSVKGRFTISRDNAKNTVYLQMNSLKPEDTAVYYCNARTVSRNGYQDDYWGQGTQVTVSS | low polyreactivity |
| QVQLVESGGGLVQAGGSLRLSCAASGYTFFLNAMGWYRPAPGNERELVAVITNVGSTYYADSVKGRFTISRDNAKNTVYLQMHSLKPEDTAVYYCAAEYLAYYSGYDYWGQGTQVTVSS | high polyreactivity |
| QVQLVESGGGLVQAGGSLRLSCAASGYTFFYAMAWYRQAPGKERELVASITSAASTTYADSVKGRFSISRDNAKNTVYLQMNSLKPEDTAVYYCAASHSWWFYPGYYYWGQGTQVTVSS | high polyreactivity |
| QVQLVESGGGLVQAGGSLRLSCAASGYTFGANVMGWYRQAPGKERELVAAINTRGSRTYYADSVNGRFTISRDNAKNTVYLQMNSLKPEDTAVYYCAAALRKEYDYWGQGTQVTVSS | high polyreactivity |
| QVQLVESGGGLVQAGGSLRLSCAASGYTFGFYAMGWYRQAPGKERELVAAISRSGGRTYYADSVKGRFTISRDNAKNTVYLQMNSLKPEDTAVYYCAAYQYGMDYWGQGTQVTVSS | high polyreactivity |
| QVQLVESGGGLVQAGGSLRLSCAASGYTFGFYGMGWYRQAPGKERDLVAAISRSGGGSTYYADSVKGRFTISRDNAKNTVYLQMNSLKPEDTAVYYCNRDFDDEMWGQGTQVTVSS | low polyreactivity |
| QVQLVESGGGLVQAGGSLRLSCAASGYTFGQNAMGWYRQAPGKEREFVAAISWSGTSTYYADSVKGRFTISRDNAKNTVYLQMNSLKPEDTALYYCAARSYRYVSRREYWGQGTQVTVSS | high polyreactivity |
| QVQLVESGGGLVQAGGSLRLSCAASGYTFGSNVMGWYRQAPGKERELVAAITFSGGSTYYADSVKRRFTISRDNAKNTVFLLMIRLKPEDTAVYYCAVRYVRYYAWYYYWGQGTQVTVSS | high polyreactivity |
| QVQLVESGGGLVQAGGSLRLSCAASGYTFGWYAMGWYRQAPGTERELVAGISSAGSTNYADSVKGRFTISRDNAKNTVYLQMNSLKPEDTAVYYCARDKWGLRYAPTVDYWGQGTQLTVSS | high polyreactivity |
| QVQLVESGGGLVQAGGSLRLSCAASGYTFGYNALGWYRQAPGKERELVAAISNGGSTNYADSVKGRFTISRDNAKNTVYLQMNSLKPEDTAVYYCAAASRLHIGYWRYDFWGQGTQVTVSS | low polyreactivity |
| QVQLVESGGGLVQAGGSLRLSCAASGYTFHDYAMGWYRQAPGKERELVAAISKRGGSTYYADSVKGRFTISRDNAKNTVYLQMNSLKPEDTAVYYCAKGGPHRGTGLNDYWGQGTQVTVSS | high polyreactivity |
| QVQLVESGGGLVQAGGSLRLSCAASGYTFHYNTMGGYRQAPGKERELVATISDGGSTNYADSVKGRFTISRDNAKNTVYLQMNSLKPEDTAVYYCAALYQQFQSALVPYFDVIEEDYWGQGTQVTVSS | low polyreactivity |
| QVQLVESGGGLVQAGGSLRLSCAASGYTFIVNAIGWYRQAPGKERELVAGISYRGGRTFYADSVKGRFTISRDNAKNTVYLQMNSLKPEDTAVYYCAARKTGIPFYNYDYWGQGTQVTVSS | low polyreactivity |
| QVQLVESGGGLVQAGGSLRLSCAASGYTFNNYAMGWYRQAPGKERELVAAISSSGGSTYYADSVKGRFTISRDNAKNTRYFQMNSLKPEDTAVYYGDGRPFGHGDYRGYYYWGQGTQVTVSS | low polyreactivity |
| QVQLVESGGGLVQAGGSLRLSCAASGYTFNPYVMGWYSQAPGKERELVAAISSGGSTSYADSVKGRFTISRDNAKNTVYLQMNSLKPEDTAVYYCAADWSYYYSRNYESDYWGQGTQVTVSS | low polyreactivity |
| QVQLVESGGGLVQAGGSLRLSCAASGYTFPLYAMGWYRQAPGKERELVADINIGGASTYYADSVKGRFTISRDNAKNTVYLQMYSLKPEDTAVYYCAKEYYDGYFPTFDYDYWGQGTQVTVSS | low polyreactivity |
| QVQLVESGGGLVQAGGSLRLSCAASGYTFPLYAMGWYTQAPGKERELVADINIGGASTYYADSVKGRFTISRDNAKNTVYLQMNSLKPEDTAVYDCAKEYYDGYFPTFEYDYWGQGTQVTVSS | low polyreactivity |
| QVQLVESGGGLVQAGGSLRLSCAASGYTFPSYALGWYRQAPGKERELVAVITIGGTYYADSVKGRFTISRDNAKNTVYLQMNSLKPEDTAVYYCAADWAWDYYRGFDYLGQGTQVTVSS | low polyreactivity |
| QVQLVESGGGLVQAGGSLRLSCAASGYTFPYYTMGWYRQAPGKERELVAAISSGGRTKYADSVKGRFTISRDNAKNTVYLQMNSMKPEDTAVYYCNAVHSPAQCRSKYYPYNYWGQGTQVTVSS | high polyreactivity |
| QVQLVESGGGLVQAGGSLRLSCAASGYTFQENAMGWYRQAPGKERELVAAISYGGGSTYYADSVKGRFTISRDNAKNTVYLQMNRLKPEDTAVYYCADDGGSAYAWYFAELYGYWGQGTQVTVSS | low polyreactivity |
| QVQLVESGGGLVQAGGSLRLSCAASGYTFQHYGMGWYRQAPGKERELVAAITRRGSGTYYADSVKGRFTISRDNAKNTVYLQMNRLKPEDTAVYYCAAAVGHGVDYWGQGTQVTVSS | high polyreactivity |
| QVQLVESGGGLVQAGGSLRLSCAASGYTFQTYAMGCYRQAPGKERELVAAITRSGTRTYYADSVKGRFTISRDNAKNTVYLQMYSLKPEDTAVYYCAAETYYSIYDYWGQGTQVTVSS | high polyreactivity |
| QVQLVESGGGLVQAGGSLRLSCAASGYTFQWYDMGWYRQAPGKERELVASISWRGGSTYYADSVKGRFTISRDNAKNTVYLQMNSLKPEDTAVYYCAASLWPDYEYDYWGQGTQVTVSS | low polyreactivity |
| QVQLVESGGGLVQAGGSLRLSCAASGYTFQYNDMGWYRQAPGKERELVAGISIGGSTNYADSVKGRFTISRDNAKNTVYLQMNSLKPEDTAVYYCAARTLWFPGTTSTSVGSKYGYWGQGTQVSVSS | low polyreactivity |
| QVQLVESGGGLVQAGGSLRLSCAASGYTFRLYAMGWYRQAPGKERELVAAITSRGGTFYADSVKGRFTLSRDNAKNTVYLQMNSLKPEDTAVYYCAVAPNYPDFRRAIYLYDYWGQGTQLTVSS | low polyreactivity |
| QVQLVESGGGLVQAGGSLRLSCAASGYTFRRYAMGWYRQAPGKERELVAAINYSGGSTYYADSVKGRFTISRDNSKNTVYLQMNSLKPEDTAVYYCAARVPSPYVATYYYWGQGTQVTVSS | high polyreactivity |
